Measurements taken from US20210261685A1 (Alector, published 2021).
Substitutions are numbered along the chain they refer to. Blank lines part the entries; values can stand above or below the binder they belong to.

How the values were obtained:
Assay in all cases: SPR, Carterra LSA, antibody immobilised
[1] = molecular target: T1, human MerTK extracellular domain (ECD), recombinant (human, UniProt Q12866 21-505)
T1 construct: also called huMerTK; not shown: polyHis tag or TEVS/Thrombin/murine IgG2a Fc tag
T1 sequence: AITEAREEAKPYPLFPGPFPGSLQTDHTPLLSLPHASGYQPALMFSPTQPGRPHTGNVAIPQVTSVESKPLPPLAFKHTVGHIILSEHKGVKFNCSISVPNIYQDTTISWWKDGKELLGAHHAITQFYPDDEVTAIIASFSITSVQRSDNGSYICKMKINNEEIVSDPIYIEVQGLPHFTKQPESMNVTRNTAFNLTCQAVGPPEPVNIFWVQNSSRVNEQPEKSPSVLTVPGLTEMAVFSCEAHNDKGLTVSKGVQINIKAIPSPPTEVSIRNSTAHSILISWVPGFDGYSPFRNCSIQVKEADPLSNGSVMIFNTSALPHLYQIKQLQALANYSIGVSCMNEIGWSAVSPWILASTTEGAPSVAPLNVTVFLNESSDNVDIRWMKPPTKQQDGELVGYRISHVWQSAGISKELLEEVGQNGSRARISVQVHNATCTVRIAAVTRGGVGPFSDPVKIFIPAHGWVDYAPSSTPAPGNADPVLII
Summary of the method: (§1)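 Anti-MerTK antibodies diluted to 10 μg/ml in 10 mM Acetate, pH 4.25 were amine-coupled in a 96-spot array onto an HC200M chip activated with MES/sulfo-NHS/EDC, then blocked with 1M Ethanolamine pH 8.5. On a Carterra LSA, recombinant MerTK extracellular domain was injected at 33.3, 100, and 300 nM in HBS-TE with 0.5 mg/ml BSA, lowest to highest without regeneration. KD came from fitted k-on and k-off.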

[2] = molecular target: T2, murine MerTK extracellular domain (ECD), recombinant (mouse, UniProt Q60805 19-497)
T2 construct: also called moMerTK; mouse MerTK; not shown: polyHis tag or TEVS/Thrombin/murine IgG2a Fc tag
T2 sequence: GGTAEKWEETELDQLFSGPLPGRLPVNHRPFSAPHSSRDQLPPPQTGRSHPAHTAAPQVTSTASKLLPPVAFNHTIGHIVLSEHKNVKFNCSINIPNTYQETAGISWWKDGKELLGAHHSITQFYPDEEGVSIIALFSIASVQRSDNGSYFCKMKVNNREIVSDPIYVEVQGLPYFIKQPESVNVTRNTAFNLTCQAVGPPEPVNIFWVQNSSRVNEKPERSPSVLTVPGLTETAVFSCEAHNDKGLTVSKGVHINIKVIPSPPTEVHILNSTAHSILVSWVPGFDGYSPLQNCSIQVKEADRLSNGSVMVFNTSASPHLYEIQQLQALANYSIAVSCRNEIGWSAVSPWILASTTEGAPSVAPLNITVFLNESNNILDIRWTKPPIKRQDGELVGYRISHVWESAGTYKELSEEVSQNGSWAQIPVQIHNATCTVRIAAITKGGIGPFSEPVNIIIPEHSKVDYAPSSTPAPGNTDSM
Summary of the method: as §1

[3] = molecular target: T3, cyno MerTK extracellular domain (ECD), recombinant (cynomolgus monkey, UniProt Q12866 21-505 (human entry))
T3 construct: also called cynomolgus MerTK; not shown: polyHis tag or TEVS/Thrombin/murine IgG2a Fc tag
T3 chain: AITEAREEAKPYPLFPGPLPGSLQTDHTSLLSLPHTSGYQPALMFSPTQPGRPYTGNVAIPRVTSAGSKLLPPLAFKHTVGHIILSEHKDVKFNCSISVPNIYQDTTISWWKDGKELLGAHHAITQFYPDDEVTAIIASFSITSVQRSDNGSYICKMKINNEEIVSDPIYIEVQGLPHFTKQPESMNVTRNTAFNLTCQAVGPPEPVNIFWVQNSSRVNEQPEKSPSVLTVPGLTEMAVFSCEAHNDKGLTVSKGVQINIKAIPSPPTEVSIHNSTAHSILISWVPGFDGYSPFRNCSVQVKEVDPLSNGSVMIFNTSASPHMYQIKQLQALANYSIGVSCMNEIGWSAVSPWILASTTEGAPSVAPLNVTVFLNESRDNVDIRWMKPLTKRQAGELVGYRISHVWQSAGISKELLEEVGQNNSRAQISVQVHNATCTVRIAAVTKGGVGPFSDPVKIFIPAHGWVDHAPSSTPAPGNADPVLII
Summary of the method: as §1

B1: MTK-02 (antibody, human IgG1, V domains shown)
VH: QIQLVQSGPELKQPGETVKISCKASGYTFTDYGVNWVKQAPGKGLKWMGWINTYSGEPTYAGDFKGRFAFSLESSASTAFLQINNLKNEDMATYFCARRVRYWYFDVWGAGTSVTVSS
VL: QIVLSQSPAILSASPGERVTMTCRANSSVSYMHWYQQKPGSSPKPWIYATSNLASGVPARFSASGSGTSYSLTVSRVEAEDAATYYCQQWGSNPFTFGSGTKLEIK
Kd [1]: 22 nM
binding result [2]: no binding (tested: 300 nM)
Kd [3]: 24 nM

B3: MTK-08 (antibody, human IgG1, V domains shown)
VH: B1 VH with Q13K, D31N, V34M, S55T, G62D, S74T, F80Y, M91T, R99E, S113T
VL: QIVLSQSPAILSASPGEKVTMTCRATSSVSYMHWFQQKPGSSPKPWIYATSNLASGVPARFSGSGSGTSYSLTISRVEAEDAAAYYCQHWSGNPRTFGGGTKLEIK
Kd [1]: 37 nM
binding result [2]: no binding (tested: 300 nM)
Kd [3]: 42 nM

Next, values leading:

Kd [1]: 6.4 nM
binding result [2]: no binding (tested: 300 nM)
Kd [3]: 5.9 nM
B2: MTK-36 (antibody, human IgG1, V domains shown)
VH: QVTLKESGPGILQPSQTLSLTCSFSGFSLSTFGMGVGWIRQPSGKGLEWLAHIWWYDDKYYEPALKSRLTISKDSSKNQVFLKIANVDTADTATYYCARIYYGTSYRYFDVWGTGTTVTVSS
VL: B3 VL with S14F, S30R, F35Y, S51Y, A54T, A84T, Q88H, H89Q, G92S, R95Y

Kd [1]: 45 nM
binding result [2]: no binding (tested: 300 nM)
Kd [3]: 53 nM
B4: MTK-14 (antibody, human IgG1, V domains shown)
VH: QIQLVQSGPELKKPGETVKISCKASGYTFTNYGMNWVKQAPGKDLQWMGWINTYTGEPTYADDFTGRFAFSLETSASTAYLQINNLKNEDTATYFCAKGGHYAWFAYWGQGTLVTVSA
VL: B3 VL with A25S, T26S, F35Y, A59G, A84T, H89Q, S91G, G92S
